# In PMC9998502, “Functional selectivity of EM-2 analogs at the mu-opioid receptor” (Frontiers in Pharmacology, 2023):
# Non-standard residues stand in square brackets, D forms with d. No end group written: not given here. Dmt = Cc1cc(O)cc(C)c1C[C@H](N)C(=O)O
# Tests used:
# [1] = molecular target: human mu opioid receptor (human) (UniProt P35372); assay: radioligand binding; displacement of [3H]DAMGO from commercial membranes of CHO cells transfected with the human recombinant mu opioid receptor; Ki, mean ± SEM, n ≥ 3
# human mu opioid receptor (human), sequence (P35372 whole entry): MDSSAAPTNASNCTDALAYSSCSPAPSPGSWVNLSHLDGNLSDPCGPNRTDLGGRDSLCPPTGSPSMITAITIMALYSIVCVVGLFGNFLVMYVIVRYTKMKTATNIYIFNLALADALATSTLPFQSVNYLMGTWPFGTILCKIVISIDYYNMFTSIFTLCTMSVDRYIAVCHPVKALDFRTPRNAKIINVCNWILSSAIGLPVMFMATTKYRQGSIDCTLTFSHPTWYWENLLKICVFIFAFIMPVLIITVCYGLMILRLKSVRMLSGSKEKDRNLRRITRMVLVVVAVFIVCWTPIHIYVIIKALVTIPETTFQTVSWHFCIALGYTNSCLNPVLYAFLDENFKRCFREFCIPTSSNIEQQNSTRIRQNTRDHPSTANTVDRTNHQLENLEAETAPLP
# [2] = molecular target: human mu opioid receptor (human) (UniProt P35372)
Binder,Ki [1] [nM],"calcium mobilization, CHO cells with human mu receptor and Gαqi5: α (Emax ratio to the standard agonist) [2]"
YPFF-NH2 [endomorphin-2 (Tyr-Pro-Phe-Phe-NH2)],1.97,1
[Dmt]PFF-NH2 [EM-2 analog 1 (Dmt-Pro-Phe-Phe-NH2)],0.54,0.85
